# Test results published in article PMC10240976 (Autophagy, 2022).
# Tests used:
# mRFP-GABARAPL1 [1] = biological target: T1, mRFP-GABARAPL1 (UniProt Q9H0R8 1-117); assay: recruitment of LIR-GFP or gProbe; parameters: unit not given here; settings: partners not purified
# T1 construct: also called membrane-anchored GABARAPL1
# LC3A (purified, for ITC) = assay: ITC; settings: both partners purified
# mRFP-GABARAPL1 [2] = biological target: T1, mRFP-GABARAPL1; assay: recruitment of LIR-GFP or gProbe to mRFP-mATG8-containing autophagic membranes (A:C ratio), microscopy; LIR(X)-GFP or gProbe-X co-expressed with one mRFP-mATG8 in HKO HeLa cells; 100 nM BafA1 in EBSS for 2 h; fixed in 4% PFA; autophagosome:cytosol GFP ratio normalized to GFP-expressing cells; settings: partners not purified
# T1 sequence (Q9H0R8 whole entry): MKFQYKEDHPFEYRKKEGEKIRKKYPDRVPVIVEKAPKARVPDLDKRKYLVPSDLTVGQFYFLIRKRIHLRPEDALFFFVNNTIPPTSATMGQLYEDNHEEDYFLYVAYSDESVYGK
Binder,other (mRFP-GABARAPL1 [1]),other results
"KQLKRFSTEEFVLL (domain or fragment, source: HKO HeLa cells, transfected, in cells; not shown: GFP, C-terminal, kept) [LIR(ATG4C)-GFP]",2.93,
"NSQDRVDHEEWEMVPRHSSWGDVGV (domain or fragment, also called STBD1 (St); source: HKO HeLa cells, transfected, in cells; not shown: GFP, C-terminal, kept) [LIR(St)-GFP]",5.08,
"DGTLIIDLPDSY (also called TP53INP2 peptide; source: synthetic peptide (Cosmo Bio), purified by SEC) [LIR(TP[T]) peptide]",,"Kd (LC3A (purified, for ITC)): > 132 µM"
"PQDYESDDDSYEVLDLTEYARRHQW (domain or fragment, source: HKO HeLa cells, transfected, in cells; not shown: GFP, C-terminal, kept) [LIR(FUNDC1)-GFP]",,normalized A:C ratio (mRFP-GABARAPL1 [2]): 1.96
"PSEDSPLLEDWDIISPKDVIGSDVL (domain or fragment, source: HKO HeLa cells, transfected, in cells; not shown: GFP, C-terminal, kept) [LIR(TBC1D25)-GFP]",1.41,
"ERFFDSEDEDFEILSL (domain or fragment, also called ATG4B (4B); source: HKO HeLa cells, transfected, in cells; not shown: GFP, C-terminal, kept) [LIR(4B)-GFP]",2.19,
"QKVRPQQEDEWVNVQYPDQPEEPPE (domain or fragment, source: HKO HeLa cells, transfected, in cells; not shown: GFP, C-terminal, kept) [LIR(PLEKHM1)-GFP]",1.86,
"LRAKRPSSEDFVFL (domain or fragment, source: HKO HeLa cells, transfected, in cells; not shown: GFP, C-terminal, kept) [LIR(ATG4D)-GFP]",2.65,
"QLEEFDLEEDFEILSV (domain or fragment, source: HKO HeLa cells, transfected, in cells; not shown: GFP, C-terminal, kept) [LIR(ATG4A)-GFP]",2.18,
"GMQEESLQGSWVELHFSNNGNGGSV (domain or fragment, source: HKO HeLa cells, transfected, in cells; not shown: GFP, C-terminal, kept) [LIR(BNIP3)-GFP]",,normalized A:C ratio (mRFP-GABARAPL1 [2]): 1.45
"FALEETLESDWVAVRPHVFDEREKH (domain or fragment, source: HKO HeLa cells, transfected, in cells; not shown: GFP, C-terminal, kept) [LIR(JMY)-GFP]",1.46,

# More lines, main results first:
other (mRFP-GABARAPL1 [1]),Binder,other results
2.81,"QEQSEVDHGDFEMVSESMVLETAEN (domain or fragment, source: HKO HeLa cells, transfected, in cells; not shown: GFP, C-terminal, kept) [LIR(UBR4)-GFP]",
5,"FVSEEDEVDGWLIIDLPDSYAAPPS (domain or fragment, also called TP53INP2 (TP); source: HKO HeLa cells, transfected, in cells; not shown: GFP, C-terminal, kept) [LIR(TP)-GFP]",
2.43,"PEFNEKEDDEWILVDFIDTCTGFSA (domain or fragment, source: HKO HeLa cells, transfected, in cells; not shown: GFP, C-terminal, kept) [LIR(TP53INP1)-GFP]",
1.58,"SKDSSCDTDDFVMVPAQFPGDLVAE (domain or fragment, source: HKO HeLa cells, transfected, in cells; not shown: GFP, C-terminal, kept) [LIR(ULK1)-GFP]",
3.06,"DQLSLDEKDGFIFVNYSEGQTRAHL (domain or fragment, source: HKO HeLa cells, transfected, in cells; not shown: GFP, C-terminal, kept) [LIR(WDFY3/ALFY)-GFP]",
2.5,"SKNSSCDTDDFVLVPHNISSDHSCD (domain or fragment, source: HKO HeLa cells, transfected, in cells; not shown: GFP, C-terminal, kept) [LIR(ULK2)-GFP]",
